# Measured values published in IntAct's records for PubMed 22139370.
# B1: Cryptochrome-2 (Arabidopsis thaliana (Mouse-ear cress)), Q96524 (parent)
# chain: MKMDKKTIVWFRRDLRIEDNPALAAAAHEGSVFPVFIWCPEEEGQFYPGRASRWWMKQSLAHLSQSLKALGSDLTLIKTHNTISAILDCIRVTGATKVVFNHLYDPVSLVRDHTVKEKLVERGISVQSYNGDLLYEPWEIYCEKGKPFTSFNSYWKKCLDMSIESVMLPPPWRLMPITAAAEAIWACSIEELGLENEAEKPSNALLTRAWSPGWSNADKLLNEFIEKQLIDYAKNSKKVVGNSTSLLSPYLHFGEISVRHVFQCARMKQIIWARDKNSEGEESADLFLRGIGLREYSRYICFNFPFTHEQSLLSHLRFFPWDADVDKFKAWRQGRTGYPLVDAGMRELWATGWMHNRIRVIVSSFAVKFLLLPWKWGMKYFWDTLLDADLECDILGWQYISGSIPDGHELDRLDNPALQGAKYDPEGEYIRQWLPELARLPTEWIHHPWDAPLTVLKASGVELGTNYAKPIVDIDTARELLAKAISRTREAQIMIGAAPDEIVADSFEALGANTIKEPGLCPSVSSNDQQVPSAVRYNGSKRVKPEEEEERDMKKSRGFDERELFSTAESSSSSSVFFVSQSCSLASEGKNLEGIQDSSDQITTSLGKNGCK
# partner: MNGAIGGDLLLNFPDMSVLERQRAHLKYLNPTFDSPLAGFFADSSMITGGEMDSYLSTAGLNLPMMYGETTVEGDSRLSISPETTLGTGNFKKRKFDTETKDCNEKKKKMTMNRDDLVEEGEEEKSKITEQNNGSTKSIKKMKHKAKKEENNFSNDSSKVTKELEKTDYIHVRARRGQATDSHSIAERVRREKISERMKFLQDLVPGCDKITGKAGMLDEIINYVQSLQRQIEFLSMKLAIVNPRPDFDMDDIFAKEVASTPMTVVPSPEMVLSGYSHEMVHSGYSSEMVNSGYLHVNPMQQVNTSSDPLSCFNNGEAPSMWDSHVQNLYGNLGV
# B2: Cryptochrome-2 (Arabidopsis thaliana (Mouse-ear cress)), Q96524 (parent)
# chain: B1 chain
# partner: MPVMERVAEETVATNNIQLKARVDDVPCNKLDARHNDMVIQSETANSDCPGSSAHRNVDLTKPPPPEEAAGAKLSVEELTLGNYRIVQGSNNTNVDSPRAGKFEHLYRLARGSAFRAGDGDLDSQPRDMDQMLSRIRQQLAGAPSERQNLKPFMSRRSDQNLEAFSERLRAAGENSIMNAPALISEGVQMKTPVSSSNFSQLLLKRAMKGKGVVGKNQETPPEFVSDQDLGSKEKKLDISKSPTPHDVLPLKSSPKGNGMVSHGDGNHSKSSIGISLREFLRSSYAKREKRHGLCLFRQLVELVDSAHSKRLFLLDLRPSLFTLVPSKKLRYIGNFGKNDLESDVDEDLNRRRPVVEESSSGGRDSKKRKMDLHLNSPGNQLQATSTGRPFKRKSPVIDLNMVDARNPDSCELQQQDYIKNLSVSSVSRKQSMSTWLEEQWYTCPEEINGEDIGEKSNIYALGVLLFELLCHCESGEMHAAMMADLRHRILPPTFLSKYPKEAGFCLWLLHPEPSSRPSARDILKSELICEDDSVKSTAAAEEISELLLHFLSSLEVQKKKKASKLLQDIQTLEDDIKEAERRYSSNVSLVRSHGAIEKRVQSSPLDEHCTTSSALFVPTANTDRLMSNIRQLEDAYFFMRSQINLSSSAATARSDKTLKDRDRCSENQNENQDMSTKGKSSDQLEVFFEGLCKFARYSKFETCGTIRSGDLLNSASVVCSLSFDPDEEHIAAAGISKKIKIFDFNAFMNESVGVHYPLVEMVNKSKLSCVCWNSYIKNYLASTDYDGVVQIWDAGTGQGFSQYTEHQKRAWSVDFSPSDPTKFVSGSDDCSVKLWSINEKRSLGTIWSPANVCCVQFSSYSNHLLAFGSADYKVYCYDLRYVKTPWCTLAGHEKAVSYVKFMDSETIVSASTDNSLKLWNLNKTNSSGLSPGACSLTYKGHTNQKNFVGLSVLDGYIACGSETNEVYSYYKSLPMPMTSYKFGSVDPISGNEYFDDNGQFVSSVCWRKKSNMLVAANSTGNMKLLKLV
# Variants of: B1
# Conditions: with bh063_arath BHLH63, Q8GY61
row,Variant,effect of a mutation on the interaction
1,D387A,disrupting interaction strength
2,W374A,increasing interaction strength

# Variants of: B2
# Conditions: with spa1_arath SPA1, Q9SYX2
row,Variant,effect of a mutation on the interaction
1,W374A,increasing interaction strength
